Reference: PMC4023160, “Head-to-tail interactions of the coiled-coil domains regulate ClpB activity and cooperation with Hsp70 in protein disaggregation” (eLife, 2014)

Experiments:
[1] = molecular target: the molecule itself; test: FRET or BRET; Trp (Q427W, donor) to IAEDANS (Q502C, acceptor) between adjacent subunits; low salt buffer A (50 mM Tris pH 7.5, 5 mM MgCl2, 20 mM KCl, 2 mM DTT) without or with 2 mM ATP, 25°C, excitation 290 nm
[2] = molecular target: the molecule itself; test: cross-linking; disulfide cross-linking: 4 μM ClpB cysteine variant, 25 μM Cu-Phenanthroline, 1 min at room temperature; non-reducing SDS gradient gel (3-8%)
[3] = molecular target: the molecule itself; test: crystal structure; SeMet protein with ATP (ADP bound), space group P65, one molecule in the asymmetric unit, 3.50 Å
[4] = molecular target: the molecule itself; test: negative-stain EM single-particle reconstruction; BAP(HAP)-ClpP complexes formed in 20 mM Tris-HCl pH 7.5, 20 mM KCl, 15 mM MgCl2, 1 mM DTT, 2 mM ATPγS; stained with 2% uranyl acetate; side views of 2:2 complexes cut into 1:1 halves; sixfold symmetry imposed or none

| Protein | binding result [1] | binding result [2] | also measured |
| --- | --- | --- | --- |
| ClpB-Q427W-Q502C-IAEDANS (W462Y/W543L) with E432A (natural protein, IAEDANS on the cysteine at 502 (Q502C), labelled with efficiencies of 70-80%, ClpB of E. coli; also called E432A (FRET pair); source: purified (Ni-IDA, size exclusion chromatography Superdex S200); labelled with 1,5-IAEDANS) not shown | binds | – | – |
| ClpB-K431C-S499C repressed (E432A) variant (natural protein, ClpB of E. coli; source: purified (Ni-IDA, size exclusion chromatography Superdex S200); dialyzed to remove DTT) not shown | – | binds | – |
| ND truncation of E. coli ClpB (residues 159 to 858; E279A/E432A/E678A), SeMet (domain or fragment, selenomethionine (SeMet), ClpB of E. coli, residues 159 to 858, without the N-terminal domain; One molecule in the asymmetric unit (P65); monomers form a spiral assembly in the crystal; also called ClpB E279A/E432A/E678A (SeMet) + ATP; E. coli ClpB-E432A (crystal structure); source: purified (Ni-IDA, size exclusion chromatography Superdex S200)) not shown | – | – | binding result [3]: binds |
| ClpB-K431C-S499C hyperactive (Y503D) variant (natural protein, ClpB of E. coli; source: purified (Ni-IDA, size exclusion chromatography Superdex S200); dialyzed to remove DTT) not shown | – | binds | – |
| ClpP protease (enzyme, ClpP protease; source: purified as described previously (Oguchi et al., 2012); copies: 14) not shown | – | – | stoichiometry N [4]: 14 |
| ClpB-Q427W-Q502C-IAEDANS in the tryptophan-free ClpB-W462Y/W543L variant (natural protein, IAEDANS on the cysteine at 502 (Q502C), labelled with efficiencies of 70-80%, ClpB of E. coli; also called wild type ClpB (FRET pair); source: purified (Ni-IDA, size exclusion chromatography Superdex S200); labelled with 1,5-IAEDANS) not shown | binds | – | – |
